In paper PMC4267659 (Nucleic Acids Research, 2014):

What was measured:
Assay in all cases: native gel or EMSA
[1] = biological target: T1, P. horikoshii aEF1α R132L mutant (Pyrococcus horikoshii, UniProt O59153 1-428, R132L)
T1 sequence: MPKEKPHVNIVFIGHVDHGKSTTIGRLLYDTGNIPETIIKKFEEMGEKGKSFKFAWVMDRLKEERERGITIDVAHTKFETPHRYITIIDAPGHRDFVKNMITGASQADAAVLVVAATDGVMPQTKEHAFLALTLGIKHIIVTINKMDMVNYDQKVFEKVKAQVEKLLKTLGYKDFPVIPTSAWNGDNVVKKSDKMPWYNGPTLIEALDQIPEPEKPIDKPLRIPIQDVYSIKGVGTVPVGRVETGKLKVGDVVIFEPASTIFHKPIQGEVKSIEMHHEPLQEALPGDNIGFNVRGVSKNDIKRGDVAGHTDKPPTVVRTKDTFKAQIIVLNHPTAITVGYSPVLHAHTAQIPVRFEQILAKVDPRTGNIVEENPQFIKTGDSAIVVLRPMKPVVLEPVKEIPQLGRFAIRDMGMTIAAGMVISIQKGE

[2] = biological target: T2, P. horikoshii aEF1α A360S mutant (Pyrococcus horikoshii, UniProt O59153 1-428, A360S)
T2 sequence: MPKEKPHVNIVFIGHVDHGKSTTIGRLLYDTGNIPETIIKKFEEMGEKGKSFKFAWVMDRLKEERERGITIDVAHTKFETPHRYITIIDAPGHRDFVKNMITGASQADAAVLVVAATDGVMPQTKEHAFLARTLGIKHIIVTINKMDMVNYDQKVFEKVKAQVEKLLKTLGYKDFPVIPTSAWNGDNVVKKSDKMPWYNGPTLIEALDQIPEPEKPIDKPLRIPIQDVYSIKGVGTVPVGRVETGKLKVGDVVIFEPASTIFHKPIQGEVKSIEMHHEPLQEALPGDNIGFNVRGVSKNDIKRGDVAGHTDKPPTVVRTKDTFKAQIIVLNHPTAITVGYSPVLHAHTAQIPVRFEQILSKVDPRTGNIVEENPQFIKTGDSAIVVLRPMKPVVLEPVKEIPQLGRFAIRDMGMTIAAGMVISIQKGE

[3] = biological target: T3, P. horikoshii aEF1α L166S mutant (Pyrococcus horikoshii, UniProt O59153 1-428, L166S)
T3 sequence: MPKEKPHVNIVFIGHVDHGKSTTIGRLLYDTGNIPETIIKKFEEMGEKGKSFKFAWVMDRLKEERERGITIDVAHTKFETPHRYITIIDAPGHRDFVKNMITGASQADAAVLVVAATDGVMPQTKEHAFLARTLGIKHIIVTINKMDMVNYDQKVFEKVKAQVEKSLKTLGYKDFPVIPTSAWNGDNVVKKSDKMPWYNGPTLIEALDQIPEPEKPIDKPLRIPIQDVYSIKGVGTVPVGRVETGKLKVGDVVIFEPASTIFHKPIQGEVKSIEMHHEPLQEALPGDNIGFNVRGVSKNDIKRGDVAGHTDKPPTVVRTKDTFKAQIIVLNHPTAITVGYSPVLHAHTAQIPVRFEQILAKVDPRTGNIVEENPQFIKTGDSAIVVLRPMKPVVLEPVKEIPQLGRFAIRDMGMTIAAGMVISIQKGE

[4] = biological target: T4, P. horikoshii aEF1α L359S mutant (Pyrococcus horikoshii, UniProt O59153 1-428, L359S)
T4 sequence: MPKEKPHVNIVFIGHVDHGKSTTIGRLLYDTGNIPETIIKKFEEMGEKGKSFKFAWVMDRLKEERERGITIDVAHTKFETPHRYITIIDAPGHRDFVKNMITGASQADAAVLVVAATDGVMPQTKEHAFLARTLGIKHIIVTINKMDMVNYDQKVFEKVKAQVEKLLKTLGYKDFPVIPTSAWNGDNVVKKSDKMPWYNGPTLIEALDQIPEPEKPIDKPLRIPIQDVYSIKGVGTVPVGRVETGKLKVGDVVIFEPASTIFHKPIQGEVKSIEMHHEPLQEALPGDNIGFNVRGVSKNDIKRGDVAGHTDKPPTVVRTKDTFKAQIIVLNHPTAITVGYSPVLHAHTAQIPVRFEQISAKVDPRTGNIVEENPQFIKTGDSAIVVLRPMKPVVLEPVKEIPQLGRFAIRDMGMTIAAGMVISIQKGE

[5] = biological target: T5, P. horikoshii aEF1α K125L mutant (Pyrococcus horikoshii, UniProt O59153 1-428, K125L)
T5 sequence: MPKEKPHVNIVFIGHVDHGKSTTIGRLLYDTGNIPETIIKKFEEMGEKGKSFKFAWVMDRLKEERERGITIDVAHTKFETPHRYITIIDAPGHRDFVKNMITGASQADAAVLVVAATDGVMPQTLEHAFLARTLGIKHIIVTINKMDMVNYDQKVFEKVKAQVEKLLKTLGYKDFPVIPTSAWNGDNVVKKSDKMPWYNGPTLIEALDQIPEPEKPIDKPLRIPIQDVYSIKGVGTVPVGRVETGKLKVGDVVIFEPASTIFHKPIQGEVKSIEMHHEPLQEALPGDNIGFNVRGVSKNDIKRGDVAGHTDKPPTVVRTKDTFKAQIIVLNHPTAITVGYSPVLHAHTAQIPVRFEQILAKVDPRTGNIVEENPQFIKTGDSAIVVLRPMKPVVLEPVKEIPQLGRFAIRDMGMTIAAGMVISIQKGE

[6] = biological target: T6, P. horikoshii aEF1α S423L mutant (Pyrococcus horikoshii, UniProt O59153 1-428, S423L)
T6 sequence: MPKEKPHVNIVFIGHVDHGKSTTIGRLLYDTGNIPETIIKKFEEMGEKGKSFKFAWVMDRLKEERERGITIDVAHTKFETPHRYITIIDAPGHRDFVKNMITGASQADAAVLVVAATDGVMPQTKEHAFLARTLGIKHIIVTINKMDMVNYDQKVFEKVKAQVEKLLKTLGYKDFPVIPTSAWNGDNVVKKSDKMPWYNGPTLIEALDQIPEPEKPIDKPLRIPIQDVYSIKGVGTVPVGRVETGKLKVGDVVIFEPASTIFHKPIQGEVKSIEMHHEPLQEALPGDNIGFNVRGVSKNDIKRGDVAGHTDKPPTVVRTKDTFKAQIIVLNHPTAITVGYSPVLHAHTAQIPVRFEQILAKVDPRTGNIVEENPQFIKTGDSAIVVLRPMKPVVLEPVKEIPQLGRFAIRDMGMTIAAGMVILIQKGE

[7] = biological target: T7, Pyrococcus horikoshii elongation factor aEF1α, wild type (Pyrococcus horikoshii, UniProt O59153 1-428)
T7 sequence: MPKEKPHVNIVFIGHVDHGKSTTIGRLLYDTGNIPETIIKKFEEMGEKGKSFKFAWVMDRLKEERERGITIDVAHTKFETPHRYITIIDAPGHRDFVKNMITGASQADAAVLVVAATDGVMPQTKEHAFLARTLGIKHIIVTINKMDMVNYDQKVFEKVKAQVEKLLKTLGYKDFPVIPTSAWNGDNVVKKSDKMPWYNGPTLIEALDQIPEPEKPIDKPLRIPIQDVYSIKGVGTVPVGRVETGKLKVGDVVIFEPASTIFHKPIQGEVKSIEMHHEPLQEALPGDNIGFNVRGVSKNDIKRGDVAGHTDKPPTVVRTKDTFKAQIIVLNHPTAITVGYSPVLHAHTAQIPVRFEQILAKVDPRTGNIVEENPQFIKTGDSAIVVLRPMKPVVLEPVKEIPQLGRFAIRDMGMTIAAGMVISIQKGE

Measured: binding result

B1: Pyrococcus horikoshii ribosomal stalk protein aP1, wild type (natural protein, UniProt O57705 1-108, looked up)
chain: MEYVYAALLLHSVGKEINEENLKAVLQAAGVEPEEARIKALVAALEGVNIDEVIEKAAMPVAVAAAPAAAPAEAGGEEKKEEEKKEEEEKEEEVSEEEALAGLSALFG
not listed: [7]
binds: all other assays above

B2: P. horikoshii aP1 L100S mutant (natural protein, Pyrococcus horikoshii, UniProt O57705 1-108, looked up)
chain: MEYVYAALLLHSVGKEINEENLKAVLQAAGVEPEEARIKALVAALEGVNIDEVIEKAAMPVAVAAAPAAAPAEAGGEEKKEEEKKEEEEKEEEVSEEEASAGLSALFG
binds: [7]
